Km and kcat data for one protein are collected here from publication PMC10033279.

Substrate in the series: NC(=O)C1=CN([C@@H]2O[C@H](COP(=O)(O)OP(=O)(O)OC[C@H]3O[C@@H](n4cnc5c(N)ncnc54)[C@H](O)[C@@H]3O)[C@@H](O)[C@H]2O)C=CC1
The series is described as follows: purified protein. It counts as biochemical, Pseudomonas aeruginosa. Particulars: varied 1,4-benzoquinone, 20 mM KPi, 200 mM NaCl, pH 7.0, 25 °C.

For orientation: Km means the substrate concentration at which the rate is half of its maximum. The term kcat denotes the number of substrate molecules converted per active site and unit of time at saturation.

B1: NADH:quinone oxidoreductase (NQO), PA1024 (Pseudomonas aeruginosa PAO1) (protein)
chain: MGVFRTRFTETFGVEHPIMQGGMQWVGRAEMAAAVANAGGLATLSALTQPSPEALAAEIARCRELTDRPFGVNLTLLPTQKPVPYAEYRAAIIEAGIRVVETAGNDPGEHIAEFRRHGVKVIHKCTAVRHALKAERLGVDAVSIDGFECAGHPGEDDIPGLVLLPAAANRLRVPIIASGGFADGRGLVAALALGADAINMGTRFLATRECPIHPAVKAAIRAADERSTDLIMRSLRNTARVARNAISQEVLAIEARGGAGYADIAALVSGQRGRQVYQQGDTDLGIWSAGMVQGLIDDEPACAELLRDIVEQARQLVRQRLEGMLAGV
notes: full-length gene PA1024 in pET20b(+), expressed in E. coli Rosetta(DE3)pLysS, purified; EC 1.6.5.9
With B1, the Km turned out to be 70 ± 10 µM and the kcat amounted to 27 ± 1 s⁻¹.
